In PMC8143406:

Molecular target: T1, GST-SXL (Sex-lethal) (UniProt P19339)
T1 sequence (P19339 whole entry, looked up): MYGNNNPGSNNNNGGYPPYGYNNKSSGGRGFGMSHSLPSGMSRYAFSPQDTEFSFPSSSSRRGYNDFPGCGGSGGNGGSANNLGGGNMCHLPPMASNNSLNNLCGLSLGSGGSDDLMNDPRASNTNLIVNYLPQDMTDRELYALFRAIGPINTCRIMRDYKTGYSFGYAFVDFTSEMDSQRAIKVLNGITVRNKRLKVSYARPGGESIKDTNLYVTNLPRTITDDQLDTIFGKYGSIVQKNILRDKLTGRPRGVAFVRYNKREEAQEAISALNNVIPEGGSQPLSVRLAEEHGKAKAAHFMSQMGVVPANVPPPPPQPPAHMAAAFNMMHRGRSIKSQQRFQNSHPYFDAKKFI
Test: EMSA
Details: EMSA as in cited refs 28 and 40, buffer, salt and pH not stated, GST-SXL at 166, 55 and 18 ng/ul, SELEX binding at 30 C for 30 min in 100 ul

[1] = within 2-3-fold of tra Py-tract

Row | Sequence | Kd [nM] | Kd [1] [nM]
1 | UUUUUGUUGUUUUUUUU [tra non-sex-specific polypyrimidine tract/3' splice site RNA] | 1 | –
2 | UUUUUUUCUUUUUUUUCU [TnI 5' UTR SXL-binding site RNA (cDNA SELEX clone 10-15h_5)] | – | 1
3 | UUUUUUUUUCUUUUUUUUGU [Gs2 3' UTR SXL-binding site RNA (cDNA SELEX clone 10-15h_14)] | – | 1
